Reference: publication PMC10104585, “Yeast PIC-Mediator structure with RNA polymerase II C-terminal domain” (Proceedings of the National Academy of Sciences of the …, 2023)

Target: T1, Rpb1 (RNA polymerase II subunit carrying the C-terminal repeat domain) (S. cerevisiae, UniProt P04050 1-1733)
T1 construct: Rpb1, subunit of RNA polymerase II, S. cerevisiae, with its C-terminal repeat domain (CTD) of 26 heptapeptide repeats of consensus YSPTSPS; Stood in the assay as a subunit of Pol II within the PIC; CTD peptides 1, 2 and 3 are stretches of its CTD seen in the map (6, 3 and 2 repeats); their register within the CTD could not be assigned; also called Rpb1 CTD; Pol II CTD
T1 sequence (P04050 whole entry, the tested form may be a part): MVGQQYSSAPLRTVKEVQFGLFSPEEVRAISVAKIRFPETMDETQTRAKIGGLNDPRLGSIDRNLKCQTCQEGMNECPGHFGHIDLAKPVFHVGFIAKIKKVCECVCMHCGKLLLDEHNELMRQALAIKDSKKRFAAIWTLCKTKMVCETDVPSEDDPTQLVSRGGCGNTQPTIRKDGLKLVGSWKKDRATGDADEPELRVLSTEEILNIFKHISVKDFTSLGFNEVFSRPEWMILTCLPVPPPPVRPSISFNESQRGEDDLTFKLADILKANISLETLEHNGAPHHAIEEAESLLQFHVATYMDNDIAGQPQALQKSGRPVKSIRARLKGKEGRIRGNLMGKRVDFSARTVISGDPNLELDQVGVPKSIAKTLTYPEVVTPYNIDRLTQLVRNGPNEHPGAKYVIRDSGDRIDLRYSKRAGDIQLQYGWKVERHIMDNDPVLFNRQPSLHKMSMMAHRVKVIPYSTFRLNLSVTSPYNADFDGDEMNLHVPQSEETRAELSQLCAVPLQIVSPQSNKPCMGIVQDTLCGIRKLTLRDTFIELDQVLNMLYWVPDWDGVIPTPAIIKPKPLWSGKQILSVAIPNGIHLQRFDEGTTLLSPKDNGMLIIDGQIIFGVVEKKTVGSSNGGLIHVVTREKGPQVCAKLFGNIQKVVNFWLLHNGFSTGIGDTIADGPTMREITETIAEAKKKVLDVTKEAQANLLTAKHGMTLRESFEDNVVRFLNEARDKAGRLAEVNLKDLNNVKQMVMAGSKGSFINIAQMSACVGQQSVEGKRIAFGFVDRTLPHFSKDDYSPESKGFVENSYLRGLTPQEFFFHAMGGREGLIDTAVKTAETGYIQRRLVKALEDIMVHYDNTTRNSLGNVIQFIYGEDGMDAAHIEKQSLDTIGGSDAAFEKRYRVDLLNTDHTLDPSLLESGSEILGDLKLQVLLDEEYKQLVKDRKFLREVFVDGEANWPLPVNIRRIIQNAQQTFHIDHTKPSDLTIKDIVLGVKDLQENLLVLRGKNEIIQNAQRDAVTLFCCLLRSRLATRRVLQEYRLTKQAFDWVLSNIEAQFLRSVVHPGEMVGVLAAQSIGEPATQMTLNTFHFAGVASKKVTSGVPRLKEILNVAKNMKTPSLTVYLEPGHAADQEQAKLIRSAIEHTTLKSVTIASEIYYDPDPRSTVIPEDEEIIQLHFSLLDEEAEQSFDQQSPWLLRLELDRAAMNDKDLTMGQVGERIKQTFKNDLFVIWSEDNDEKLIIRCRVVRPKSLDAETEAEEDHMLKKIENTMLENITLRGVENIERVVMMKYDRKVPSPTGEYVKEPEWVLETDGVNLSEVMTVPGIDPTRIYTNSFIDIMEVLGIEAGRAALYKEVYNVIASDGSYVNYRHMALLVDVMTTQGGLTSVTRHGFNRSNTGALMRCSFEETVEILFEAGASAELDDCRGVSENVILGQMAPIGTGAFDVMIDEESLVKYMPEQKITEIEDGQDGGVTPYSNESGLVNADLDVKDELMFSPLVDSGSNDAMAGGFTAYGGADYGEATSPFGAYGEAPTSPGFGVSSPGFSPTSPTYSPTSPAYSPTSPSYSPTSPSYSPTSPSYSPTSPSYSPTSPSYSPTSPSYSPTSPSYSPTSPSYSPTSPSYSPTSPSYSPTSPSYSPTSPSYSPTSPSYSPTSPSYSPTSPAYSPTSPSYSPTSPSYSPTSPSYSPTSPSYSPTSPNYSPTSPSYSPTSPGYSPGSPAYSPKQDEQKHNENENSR
Assay: cryo-EM structure; PIC-cMed-nucleosome complex assembled from the prepared factors on a His4 promoter / Widom-601 nucleosome template; GraFix sucrose gradient with glutaraldehyde cross-linking; 100 mM KCl, 25 mM K-HEPES pH 7.5, 2 mM MgCl2, 1 mM TCEP; reconstructions at 3.0 Å (PIC-cMed) and 3.6 Å (PIC-cMed-nucleosome), focused maps to 2.9-3.3 Å
Conditions: both partners purified

| binding result | Binder |
| --- | --- |
| binds | Med10 (natural protein, S. cerevisiae, Med10, Mediator subunit (hook domain), S. cerevisiae; Stood in the assay as a subunit of cMed) MNGNSTNNEQLQQELATTQDQVASIIESFVELGVSIYDFPGTPEATKGMITNLQRNVDRLYKLNVRSNDPQSSLSKVDIPLEVVQYIEDGRNPDIYTREFVEAIRRSNQYQRGKMHGLKQLRDSLADKIVDEFPELKEPVEDIIKRTSPIDNVSNTH |
| binds | Med4 (natural protein, S. cerevisiae, Med4, Mediator middle module subunit, S. cerevisiae; Stood in the assay as a subunit of cMed) MSVQDTKAVEFSMGHIRSSSVSLVAEATSNTNSEDKLSKVQLYEDLCRYEDTLSKLVESVDRFKPNLDIAKDLIRTDEALFENVKLLAEYDNIYRNLQKIDKDSEELDSKTRKILEILNECHDELKALPMLEQVEFEKNTILQQRSKINSTELLDYATKLSKFTKIPPTFDKGAVGPNNFIWPAEDALRRGMLAMASLHSKELTRIPGEEVEETEVPTVPPSQSEEQKGQMAKKEGTPKTDSFIFDGTAKEVGDEADNTKDKEKEENNDDALDLDLDLFDPDDF |
| binds | Med17 (natural protein, S. cerevisiae, Med17, Mediator head module subunit, S. cerevisiae; Stood in the assay as a subunit of cMed) MTTEDPDSNHLSSETGIKLALDPNLITLALSSNPNSSLHSPTSDEPVPESAGKADTSIRLEGDELENKTKKDNDKNLKFLKNKDSLVSNPHEIYGSMPLEQLIPIILRQRGPGFKFVDLNEKELQNEIKQLGSDSSDGHNSEKKDTDGADENVQIGEDFMEVDYEDKDNPVDSRNETDHKTNENGETDDNIETVMTQEQFVKRRRDMLEHINLAMNESSLALEFVSLLLSSVKESTGMSSMSPFLRKVVKPSSLNSDKIPYVAPTKKEYIELDILNKGWKLQSLNESKDLLRASFNKLSSILQNEHDYWNKIMQSISNKDVIFKIRDRTSGQKLLAIKYGYEDSGSTYKHDRGIANIRNNIESQNLDLIPHSSSVFKGTDFVHSVKKFLRVRIFTKIESEDDYILSGESVMDRDSESEEAETKDIRKQIQLLKKIIFEKELMYQIKKECALLISYGVSIENENKVIIELPNEKFEIELLSLDDDSIVNHEQDLPKINDKRANLMLVMLRLLLVVIFKKTLRSRISSPHGLINLNVDDDILIIRPILGKVRFANYKLLLKKIIKDYVLDIVPGSSITETEVEREQPQENKNIDDENITKLNKEIRAFDKLLNIPRRELKINLPLTEHKSPNLSLMLESPNYCNALIHIKFSAGTEANAVSFDTTFSDFKEVEDFLHFIVAEYIQQKKV |

Further lines, the binder ahead of its results:

| Binder | binding result |
| --- | --- |
| Med7 (natural protein, S. cerevisiae, UniProt Q08278 1-222, looked up, Med7, Mediator middle module subunit, S. cerevisiae; Stood in the assay as a subunit of cMed) MSNDPGNEVSSLYPPPPPYVKFFTQSNLEKLPKYKEKKAASAKQTAPNNSNGGSEEEITCALDYLIPPPMPKNQQYRAFGSIWQVKDQLPDLESMGLTQLYKKSTENESTNYQYKIQELRKLLKSLLLNYLELIGVLSINPDMYERKVENIRTILVNIHHLLNEYRPHQSRESLIMLLEEQLEYKRGEIREIEQVCKQVHDKLTSIQDTLRTGSQSPPSSSQ | binds |
| Med21 (natural protein, S. cerevisiae, Med21, Mediator subunit (hook domain), S. cerevisiae; Stood in the assay as a subunit of cMed) MTDRLTQLQICLDQMTEQFCATLNYIDKNHGFERLTVNEPQMSDKHATVVPPEEFSNTIDELSTDIILKTRQINKLIDSLPGVDVSAEEQLRKIDMLQKKLVEVEDEKIEAIKKKEKLLRHVDSLIEDFVDGIANSKKST | binds |
| Med8 (natural protein, S. cerevisiae, Med8, Mediator head module subunit, S. cerevisiae; Stood in the assay as a subunit of cMed) MSQSTASLVPEGNQGSLQEDVSFDFNGVPGQALDAVRMRLAQLTHSLRRIRDEMSKAELPQWYTLQSQLNVTLSQLVSVTSTLQHFQETLDSTVVYPLPKFPTTSHESLVTTLLRKKNIPEVDEWMKYVRETSGVTTALLKDEEIEKLLQQDREITNWARTTFRNEYGKHDFKNEESLSEEHASLLVRDSKPSKPFNVDDVLKFTFTGEKPIITGSTSTSSSN | binds |
| Med6 (natural protein, S. cerevisiae, Med6, Mediator head module subunit, S. cerevisiae; Stood in the assay as a subunit of cMed) MNVTPLDELQWKSPEWIQVFGLRTENVLDYFAESPFFDKTSNNQVIKMQRQFSQLNDPNAAVNMTQNIMTLPDGKNGNLEEEFAYVDPARRQILFKYPMYMQLEEELMKLDGTEYVLSSVREPDFWVIRKQRRTNNSGVGSAKGPEIIPLQDYYIIGANIYQSPTIFKIVQSRLMSTSYHLNSTLESLYDLIEFQPSQGVHYKVPTDTSTTATAATNGNNAGGGSNKSSVRPTGGANMATVPSTTNVNMTVNTMGTGGQTIDNGTGRTGNGNMGITTEMLDKLMVTSIRSTPNYI | binds |
